The values that follow come from patent US10105454B2, “Ultrashort peptides as exogenous second harmonic probes for bioimaging applications” (Agency for Science, Technology and Research, priority 2014, dated 2018).

Data set [1] can be described thus: Powder SHG efficiency (Kurtz and Perry powder technique, sucrose standard). It is filed as physicochemical. The following applies: relative to sucrose; average ± standard deviation. An excerpt: (§1) We acquired SHG images using a commercial laser scanning microscopic imaging system (Zeiss LSM 510 META, Jena, Germany) coupled to a mode-locked femtosecond Ti: sapphire laser (Mai-Tai broadband, Spectra-Physics), tunable from 710 nm to 990 nm. To achieve spectral analysis and detect the SHG signal, we used the META detector with 32-gated photon counting module.
All these peptides are SHG-active. We used a powder technique developed by Kurtz and Perry to evaluate the SHG efficiency of these second-order nonlinear optical materials. Sucrose, having a relatively modest nonlinearity, was chosen as a standard to evaluate second harmonic generation efficiencies. […] The efficiency of LD6 and IK3 were even three times higher than that of sucrose. These may due to their molecular structures. LD6 is known to form hydrogel at much lower concentrations compared to LK6. The trimer IK3 has larger dipole moment compared to LK6. […] This agrees with the previous findings. In Table 1, all the tested amyloid-like peptides were SHG-active with some showing even higher SHG efficiency than collagen subtypes. This provides a broad spectrum of materials as second harmonic probes.

The conditions of data set [2]: Hyper Rayleigh Scattering, ref [19]; cited from earlier work.
For data set [3] the following is noted: at 12 mM, ref [18]; cited from earlier work.
Data set [4] concerns HeLa cells. In words: Calcein AM/EthD-1 live/dead staining, HeLa cells. In kind it is cell-based, human. The following applies: 48 h, 1 and 1000 μg/mL. The method, then: (§2) (b) Cytotoxicity determined by Calcein AM/EthD-1 (live/dead, green/red) staining method after 48 h treated with 1 and 1000 μg/mL LK6 peptide solutions using non-treated cells as control.
(§3) In order to use LK6 for bioimaging applications, such as monitoring cells and in vivo imaging, we assessed the cytotoxicity of LK6 by the MTS test. The MTS test was applied to two human cell lines, HeLa and primary human dermal fibroblasts (HDF). The toxicity of LK6 was measured at 0.1, 1, 10, 100 and 1000 μg/mL. Cells were exposed to cell culture media containing LK6 solution for 48 h. […] Calcein AM can penetrate cell membrane and be converted to cell membrane impermeable green fluorescent calcein, while red fluorescent EthD-1 is excluded by the intact cell membrane of live cells.
(§4) In order to use LK6 for bioimaging applications, such as in vitro monitoring cells and in vivo imaging the whole animal, we assessed the cytotoxicity of LK6 by the MTS test and live/dead assay with two human cell lines, human epithelial carcinoma cells (HeLa) and primary human dermal fibroblasts (HDF).

Data set [5] concerns HeLa cells. The data set can be described thus: MTS cytotoxicity test, HeLa cells. In kind it is cell-based, human. The following applies: 48 h, 0.1 to 1000 μg/mL. Here is the method: as §3
(§5) We cultured both HeLa and human dermal fibroblasts in DMEM supplemented with 10% fetal bovine serum and 1% penicillin/streptomycin (Life technologies, Singapore).
as §4
For orientation: Tetrazolium dyes change colour on reduction, which living cells bring about.

In data set [6] the test system is primary human dermal fibroblasts (HDF). In words: Calcein AM/EthD-1 live/dead staining, HDF cells. In kind it is cell-based. The following applies: 48 h, 1 and 1000 μg/mL. The method, then: as §2, §3, §4
The test system is the same in data set [7]. The data set can be described thus: MTS cytotoxicity test, human dermal fibroblasts. It is filed as cell-based. The following applies: 48 h, 0.1 to 1000 μg/mL. Here is the method:
as §3, §5, §4

The nature of data set [8]: SHG imaging and spectral analysis of peptide particles. In kind it is physicochemical.
Source text: as §1
To test whether the amyloid-like peptides of the present invention are SHG-active, we first investigated a hexamer peptide, Ac-LIVAGK-NH2, (LK6) (SEQ ID NO: 27). Peptide particles deposited on a glass microscope slide were examined under an SHG imaging system. Instrument details can be found in our previous work. During the whole experiments, only the backscattered geometry was employed because it is the only suitable configuration for in vivo imaging. We chose collagen I as a control. For more than a decade it has been shown that SHG microscopy can visualize supramolecular assembly of collagen in tissues. […] The fine structures of collagen and peptide particles can be clearly seen under SHG and scanning electron microscopy (SEM, FIG. 1a insert, 1b and 1c).
We further characterized LK6 peptide. […] When excited at 810 nm, LK6 emitted a sharp SHG peak at 405 nm (FIG. 2a). We then examined the excitation wavelength tunability of SHG signals from LK6 peptide. In FIG. 2b, as the excitation wavelength was increased from 810 to 890 nm, the wavelength of the SHG signals from the LK6 peptide particles increased from 405 to 445 nm respectively. Biological samples, such as cells and tissues, are known to have auto-fluorescence. With excitation wavelength tunability, we can better avoid auto-fluorescence. In addition, we can further increase penetration depth in tissues by simply increasing excitation wavelength. […] The band width (full width at half-maximum of Gaussian distribution, FWHM) was narrow (˜10 nm) and it obeys a relationship to the corresponding wavelength profile of the fundamental beam (˜15 nm). Moreover, we measured the dependence of the output signal on irradiation intensity by varying the 850 nm excitation intensity. […] (1)

“And” between values parts separate entries of the source, which are not always exact repeats. Identical values can stand only once. No end group written: not given here.

Type II: human collagen subtype II: in data set [1], the “Powder SHG efficiency I^2ω/I^2ω(sucrose)” value is reported as 0.41 ± 0.13.
On to GGG, for which, in data set [2], the “First hyperpolarizability β” value is reported as “about 0.087 ×10-30 esu”.
Take “Type I: human collagen subtype I, control and endogenous SHG probe”: the “First hyperpolarizability β” value in data set [2] was 1250±20 ×10-30 esu. Moreover, in data set [1], the “Powder SHG efficiency I^2ω/I^2ω(sucrose)” value is given as 1.23 ± 0.36.
For “LIVAGD (Ac-LIVAGD) [LD6, designed synthetic hexamer, negatively charged, acetylated at the N terminus]”, the Hydrogel formation entry in data set [3] is on record as “self-assembled into hydrogels”. Further, the “Powder SHG efficiency I^2ω/I^2ω(sucrose)” value in data set [1] amounted to 3.06 ± 0.65.
Ac-LIVAGK-NH2 [LK6, Ac-LIVAGK-NH2]: in data set [3], the Hydrogel formation entry is given as “self-assembled into hydrogels”. Further, the “Powder SHG efficiency I^2ω/I^2ω(sucrose)” value in data set [1] was 0.95 ± 0.19. Moreover, the “Cytotoxicity by live/dead staining” value (in the data set with HeLa cells [4]; in data set [6]) was “no toxicity” throughout. Also, the “Cell viability (MTS)” value (in the data set on HeLa cells [5]; in data set [7]) was “either equivalent to or even higher than that of untreated cells” each time. For the same substance, in data set [8] (excitation 810 nm), the “SHG peak emission wavelength” value came out at 405 nm. Moreover, the “SHG band width (FWHM of Gaussian distribution)” value in data set [8] (excitation 850 nm) is ~10 nm. In addition, in data set [8] (excitation 850 nm), the “SHG emission maximum (Gaussian fit)” value is 425 nm. Further, the SHG signal wavelength in data set [8] (excitation 890 nm) is 445 nm and 450 nm.
On to “ILVAGS (Ac-ILVAGS) [IS6, designed synthetic hexamer, neutral, acetylated at the N terminus]”, for which the Hydrogel formation result in data set [3] was “self-assembled into hydrogels”. In addition, the “Powder SHG efficiency I^2ω/I^2ω(sucrose)” value in data set [1] was 1.96 ± 0.58.
In the case of NFGAIL (listed as Homo sapiens) [NL6], the Hydrogel formation entry in data set [3] is “self-assembled into hydrogels”. Besides, in data set [1], the “Powder SHG efficiency I^2ω/I^2ω(sucrose)” value was 0.76 ± 0.21.
As for KLVFFAE (listed as Homo sapiens) [KE7], the Hydrogel formation entry in data set [3] is reported as “self-assembled into hydrogels”. Moreover, the “Powder SHG efficiency I^2ω/I^2ω(sucrose)” value in data set [1] came out at 3.18 ± 0.67.
For the substance PPG, the “First hyperpolarizability β” value in data set [2] was “about 0.087 ×10-30 esu”.
As for GGVVIA (listed as Homo sapiens) [GA6], in data set [3], the Hydrogel formation result was “self-assembled into hydrogels”. Moreover, the “Powder SHG efficiency I^2ω/I^2ω(sucrose)” value in data set [1] was 1.52 ± 0.43.
Turning to DFNKF (listed as Homo sapiens) [DF5], the Hydrogel formation result in data set [3] is “self-assembled into hydrogels”. Also, the “Powder SHG efficiency I^2ω/I^2ω(sucrose)” value in data set [1] stood at 0.89 ± 0.33.
Take IVK [IK3]: in data set [3], the Hydrogel formation entry is listed as “self-assembled into hydrogels”. The “Powder SHG efficiency I^2ω/I^2ω(sucrose)” value in data set [1] was 3.31 ± 0.57.
